US11697680B2, “Anti-GP73 antibodies and immunoconjugates” (CUREAB GMBH, priority 2016, dated 2023)
Entries after “also recorded” stand apart in the source; their conditions may differ.

Key:
[1] = tested on: HEK293 GP73-His full length cells; assay: Furin blockage experiment: sGP73 in cell culture supernatant (Up-converting Phosphor Technology); format: cell-based, human; conditions: 31.3 ug/ml or 62.5 ug/ml; after 96 hours
Experimental: FIG. 23 Measurement of sGP73 in cell culture supernatant after treatment of 293HEK GP73-His full length cells with Bevacizumab or G2-2opti (IgG1). Furin cleavage is a prerequisite for sGP73 to appear in the supernatant.
HEK293 GP73-His full length cells were seeded in 96 well plates 1500 cells per well and cultured overnight. Next day, medium was changed and cells were treated with Bevacizumab 31.3 ug/ml, Bevacizumab 62.5 ug/ml, G2-2opti(IgG1) 31.3 ug/ml or G2-2opti (IgG1) 62.5 ug/ml. To examine furin cleavage inhibition the respective antibody concentrations were chosen in a range that had no impact on cell proliferation. After 96 hours the supernatants were collected for measurement of sGP73 exploiting the Up-converting Phosphor Technology (UCP) and the remaining cell layer was used in a proliferation assay with PrestoBlue reagent (Thermofisher) described in Example 8.
For sGP73 detection each supernatant was diluted 1:1 in Hotgen dilution buffer containing an anti GP73 UCP labelled antibody. […] GP73 concentrations were deduced from differences of light emission at the C and T line measured by inserting the test cassette into the Hotgen Up-converting Phosphor Technology (UCP) Analyser.

[2] = tested on: HuH7 cells; assay: Internalization of pHrodo Green labeled antibodies after pre-incubation with conditioned media containing soluble GP73; format: cell-based, human; conditions: 10 ug/ml pHrodo Green labeled antibody pre-incubated over night, 24 h at 37° C.
Experimental: Antibody internalization was measured by FACS using the pH-sensitive dye pHrodo Green coupled to each antibody. […] The internalization of G2-2 that binds to rGP73 is not altered as described in Example 6.
Labeled antibodies were purified by size exclusion (40K MWCO). A non binding Isotype Antibody that was not labeled with pHrodo® Green STP Ester (Iso.) was used as control for background fluorescence. 10 ug/ml of each antibody was pre-incubated over night at 4° C. with either fresh culture media or conditioned media. As conditioned media served either supernatant from HEK 293 or HEK 293 GP73-myc cells cultured for 72 hours, that was dialyzed (10 k MWCO) against 1 L fresh media each. To confirm the presence of secreted soluble GP73 after dialysis supernatants were analysed by Western Blot using an anti-myc antibody. 300 ul/well of each pre-incubated antibody was given to 0.6×10^6HuH7 cells growing in 24 well plates for 24 h at 37° C. and 5% CO2. Cells were washed and analysed by FACS.

[3] = tested on: HuH7 (human hepatocellular carcinoma); assay: Cell viability / proliferation with PrestoBlue reagent; format: cell-based; conditions: 0.125 mg/ml to 2 mg/ml, after 72 hrs
Experimental: FIG. 13A Proliferation of HuH7 cells (human hepatocellular carcinoma) after treatment with different antibodies. HuH7 cells were treated with G2-2, G2-2 plus Cetuximab, mG2-2, mG2-2 plus Cetuximab, Cetuximab or control antibody each in increasing concentrations from 0.125 mg/ml to 2 mg/ml. Proliferating cells were measured after 72 hrs. […] This effect was independent of the Fc part i.e. human IgG1 in G2-2 or murin IgG2a in mG2-2 as described in Example 8.
FIG. 13B Proliferation of HuH7 cells (human hepatocellular carcinoma), 4T1 cells (murin breast carcinoma) and CaCo2 cells (human colorectal carcinoma) after treatment with different antibodies. The three cell lines were treated with G2-1, G2-1 plus Cetuximab, Cetuximab, Bevacizumab or Bevacizumab plus Cetuximab 2 mg/ml total. Proliferating cells were measured after 72 hrs.
Cells from the cell lines HuH7 (human hepatocellular carcinoma), 4T1 (murin breast carcinoma) and CaCo2 (human colorectal carcinoma) were cultured under standard conditions in Dulbecco's modified Eagle Medium (DMEM) supplemented with 10% fetal calf serum (FCS) at 37° C. with 5% CO2. […] Fluorescence was read at 615 nm to quantify cell viability. […]
To test the effect of G2-1 on different cell lines, HuH7, 4T1 and CaCo2 cells were transferred to 96 well plates. […] Cell viability was quantified after 72 hours using PrestoBlue reagent and measuring the fluorescence at 615 nm.

Molecule	sGP73 in cell culture supernatant [1]	also measured
Bevacizumab: the isotype control [reference compound]	no influence on sGP73 levels	
G2-2opti (IgG1): G2-2 optimized for expression in mammalian cells by directed mutagenesis of framework; CDRs untouched (antibody, V domains shown) VH: QVQLVQSGGGVVQPGRSLRLSCAASGFTFSSYGMHWVRQAPGKGLEWVAVISYDGSNKYYADSVKGRFTISRDNSKNTLYLQMNSLRAEDTAVYYCAREGSAGMDVWGQGTTVTVSS VL: QAVLTQPSSLSASPGASASLTCTLRSDISVGFHRIYWYQQKPGSPPQYLLRYKSDSDKQQGSGVPSRFSGSKDASANAGILLISGLQSDDEADYYCVIWHTSGVVFGGGTKLTVL	decreases sGP73 secretion into supernatant; also recorded: reduce GP73 concentration	
G2-4: hybridoma antibody against peptide AA 347-366 of human GP73 (sGP73); VH/VL SEQ ID NOs: 18 and 19 (antibody, V domains shown, G2-4 heavy chain variable region (VH); G2-4 light chain variable region (VL)) VH: QVQLEESGGGLVQPGGSLRLSCATSGFTFTDYYMSWVRQPPGKALEWLGFIRNKAKGYTTEYSASVKGRFTISRDNSQSILYLQMNTLRAEDSATYYCARDPSTNYWYFDVWGAGTTVTVSS VL: DIVLTQSPSSLAVSAGEKVTMTCKSSQSLLNSRTRKNYLAWYQQKPGQSPKLLIYWASTRESGVPDRFTGSGSGTDFTLTISSVQAEDLAVYYCKQSYNLYTFGGGTKLEIKR		effect of conditioned media containing soluble GP73 on antibody internalization / cell surface binding [2]: reduces antibody binding; also recorded: reduces internalization
mG2-2: G2-2 variable regions with murine IgG2a heavy chain and human Igk light chain constant regions (antibody) heavy: EVQLLQSGGGVVQPGRSLRLSCAASGFTFSSYGMSWVRQAPGKGLEWVAVISYDGSNKYYADSVKGRFTISRDNSKNTLYLQMNSLRAEDTAVYYCAREGSAGMDVWGQGTTVTVSSASTTAPSVYPLAPVCGDTTGSSVTLGCLVKGYFPEPVTLTWNSGSLSSGVHTFPAVLQSDLYTLSSSVTVTSSTWPSQSITCNVAHPASSTKVDKKIEPRGPTIKPCPPCKCPAPNLLGGPSVFIFPPKIKDVLMISLSPIVTCVVVDVSEDDPDVQISWFVNNVEVHTAQTQTHREDYNSTLRVVSALPIQHQDWMSGKEFKCKVNNKDLPAPIERTISKPKGSVRAPQVYVLPPPEEEMTKKQVTLTCMVTDFMPEDIYVEWTNNGKTELNYKNTEPVLDSDGSYFMYSKLRVEKKNWVERNSYSCSVVHEGLHNHHTTKSFSRTPGK light: DIQMTQPSSLSASPGASASLTCTLRSDISVGFHRIYWYQQKPGSPPQYLLRYKSDSDKQQGSGVPSRFSGSKDASANAGILLISGLQSDDEADYYCVIWHTSGVVFGGGTKVEIKRTVAAPSVFIFPPSDEQLKSGTASVVCLLNNFYPREAKVQWKVDNALQSGNSQESVTEQDSKDSTYSLSSTLTLSKADYEKHKVYACEVTHQGLSSPVTKSFNRGEC		cell proliferation / cell viability [3]: reduced depending on antibody concentration
